Where two headings read alike, the source gives them in different places. Residues, ends and D or L forms follow the SMILES beside them. *: point of attachment. Cbz = O=C(OCc1ccccc1)*; CH2F = FC*
B1: rIL-1β: Murine recombinant IL-1β (401-ML, R&D systems) (protein, UniProt P10749 118-269, looked up)
Interleukin-1 beta: VPIRQLHYRLRDEQQKSLVLSDPYELKALHLNGQNINQQVIFSMSFVQGEPSNDKIPVALGLKGKNLYLSCVMKDGTPTLQLESVDPKQYPKKKMEKRFVFNKIEVKSKVEFESAEFPNWYISTSQAEHKPVFLGNNSGQDIIDFTMESVSS

What was measured:
[1] = system: caspase-1 activity in splenic CD11b^+ monocytes; experiment: FAM FLICA flow cytometry of caspase-1 activity (inflammasome activation) in splenic monocytes after stroke; format: in vivo, mice; conditions: caspase-8 or caspase-9 inhibitor vs vehicle, 18 h after stroke, normalized to sham
Description: (§1) Mice were anaesthetized with isoflurane delivered in a mixture of 30% O2 and 70% N2O. An incision was made between the ear and the eye in order to expose the temporal bone. Mice were placed in supine position, and a laser Doppler probe was affixed to the skull above the middle cerebral artery (MCA) territory. The common carotid artery and left external carotid artery were exposed via midline incision and further isolated and ligated. A 2-mm silicon-coated filament (Doccol) was inserted into the internal carotid artery, advanced gently to the MCA until resistance was felt, and occlusion was confirmed by a corresponding decrease in blood flow (i.e., a decrease in the laser Doppler flow signal by 80%. After 60 minutes of occlusion, the animals were re-anesthetized, and the filament was removed. After recovery, the mice were kept in their home cage with ad libitum access to water and food. Sham-operated mice received the same surgical procedure, but the filament was […] in lieu of being advanced to the MCA. Body temperature was maintained at 37° C. throughout surgery in all mice via feedback-controlled heating pad. The overall mortality rate of animals subjected to MCA occlusion was approximately 20%. All animals in the sham group survived the procedure. Exclusion criteria: 1. Insufficient MCA occlusion (a reduction in blood flow to […] of the baseline value). 2. Death during the surgery. 3. Lack of brain ischemia as quantified post-mortem by histological analysis.
Human recombinant DNase (hrDNase): 1000 U of human recombinant DNase (Roche, Switzerland) dissolved in incubation 1× buffer (40 mM Tris-HCl, 10 mM NaCl, 6 mM MgCl2, 1 mM CaCl2, pH 7.9, diluted in PBS, Roche) was injected i.v. in the tail vein 1 hour after surgery in a final volume of 100 μl. The control group was administered vehicle injections at the same volume, route, and timing as experimental animals.
Caspase-8 inhibitor (Z-IETD-FMK) & Caspase-9 inhibitor (Z-LEHD-FMK): The apoptosis inhibitors Z-IETD-FMK and Z-LEHD-FMK (R&D systems, US) in DMSO dissolved in PBS and injected i.p. 30 minutes after surgery. Z-LEHD-FMK was injected at a dose of […] body weight at a final volume of 200 μl. Z-IETD-FMK was injected at a dose of 0.8 mg kg^−1 body weight at a final volume of 100 μl. The control groups were administered vehicle injections at the same volume, route, and timing as experimental animals.
To detect the active forms of caspase-1 in blood, spleen, and bone marrow samples, cell suspensions were stained with the fluorescent inhibitor probe FAM-YVAD-FMK (FAM FLICA, BioRad, Germany) for 30 minutes at 37° C. according to the manufacturer's instructions. After washing, the cells were stained for CD45^+CD3^+ T cells and CD45^+Cd11b^+ monocytes. The flow cytometry data was acquired on a BD FACSVerse (for representative gating strategy, see FIG. 10B).

splenic CD3^+ T cells = experiment: Splenic T cell counts by FACS after experimental stroke; format: in vivo, mice; conditions: i.p. 30 minutes after stroke surgery; Z-IETD-FMK 0.8 mg kg^−1, Z-LEHD-FMK; normalized to sham
Description: as §1
Anti-IL1β: Mice received two injections of antagonizing anti-IL-1β in sterile saline (clone: B122, InVivoMab, BioXcell, US), 1 hour prior to and 1 hour after surgery. Anti-IL-1β or the corresponding IgG control (Armenian hamster IgG, InVivoMab, BioXcell, US) was injected i.p. at a dose of 4 mg kg^−1 body weight in a final volume of 200 μl.
Anti-FasL: Mice received two injections of antagonizing anti-FasL in sterile saline (clone: MFL3, InVivoMab, BioXcell, US), 1 hour prior to and 1 hour after surgery. […]

T cells = experiment: BMDMs stimulated with rIL-1β, then T cell co-culture: T cell death; format: cell-based, mice; conditions: T cells added to rIL-1β-stimulated BMDMs in fresh medium, FACS 180 minutes later
Experimental: Round-bottom tissue culture-treated 96-well plates were coated with 100 μl of PBS containing a mixture of […] purified NA/LE hamster anti-mouse CD3e (clone: 145-2C11, BD Pharmingen) and […] anti-mouse CD28 (clone: 37.51, Invitrogen), and then incubated overnight at 37° C. with 5% CO2. Spleens (wild type, Casp1^−/−) isolated from mice were homogenized into single splenocyte suspensions by using a 40 μm cell strainer followed by erythrolysis as described above. T cells were purified from splenocytes using a negative selection kit (MagniSort, Thermo Fisher) according to the manufacturer's instructions. Purity was reliably ≥90% as assessed by flow cytometry.
Control-treated BMDMs received only FBS-containing culture media. […] Stimulation by secreted factors (left), and 2. Cell-cell contact (right).

splenic T cells = experiment: rIL-1β i.p. injection in WT mice: T cell death in the spleen by FACS; format: in vivo; conditions: rIL-1β 100 or 1000 ng single i.p. injection, 6 h later
Experimental: (§2) Murine recombinant IL-1β: Recombinant IL-1β (401-ML, R&D systems, US) was diluted in sterile PBS and administered intraperitoneally at a dose of 100 or 1000 ng per mouse in a total volume of 100 μl. The control group was administered vehicle injections at the same volume, route and timing as experimental animals.
(§3) Mice were deeply anaesthetized with ketamine (120 mg/kg) and xylazine (16 mg/kg) and blood was drawn via cardiac puncture in 50 mM EDTA (Sigma-Aldrich). Plasma was isolated by centrifugation at 3,000 g for 10 minutes and stored at −80° C. until further use. The blood pellet was resuspended in DMEM and erythrocytes were lysed using isotonic ammonium chloride buffer. Immediately following cardiac puncture, mice were transcardially perfused with normal saline for dissection of bone marrow and spleen. […]
(§4) The anti-mouse antibodies listed below (see Table 1) were used for surface marker staining of CD45^+ leukocytes, CD45^+CD11b^+ monocytes (+FasL^+ expression), CD3^+ T cells, CD3^+CD4^+ Thelper cells, CD3^+CD8^+ Tcytotox cells and CD19^+ B cells (for representative gating strategy, see FIG. 10A). […] Flow cytometric data was acquired using a BD FACSverse flow cytometer (BD Biosciences) and analyzed using FlowJo software (Treestar).

monocytic FasL = experiment: rIL-1β i.p. injection in WT mice: monocytic FasL expression in the spleen by FACS; format: in vivo; conditions: rIL-1β 100 or 1000 ng single i.p. injection, 6 h later
Experimental: as §2, §3, §4

[2] = system: FasL^+CD11b^+ monocytes (BMDMs); conditions: BMDMs stimulated with rIL-1β in increasing doses, FACS 180 minutes after adding T cells
FasL on BMDMs = experiment: BMDMs treated with IL-1a, IL-1b or IL-18: FasL+ expression; format: cell-based, mice; conditions: BMDMs treated with 100 ng of IL-1a, IL-1b or IL-18 for 4 h

Molecule | caspase-1 activity in splenic CD11b+ monocytes [1] | caspase-1 activity in splenic CD11b+ monocytes ([1]; listed as C8i) | T cell death (splenic CD3^+ T cells) | caspase-1 activity in splenic CD11b+ monocytes ([1]; listed as C9i) | T cell death (T cells) | T cell death (T cells; listed as recombinant IL-1β) | T cell death in the spleen (splenic T cells; listed as rIL-1b) | T cell death in the spleen (splenic T cells; listed as recombinant IL-1β) | monocytic FasL expression in the spleen (monocytic FasL) | monocytic FasL expression in the spleen (monocytic FasL; listed as recombinant IL-1β) | ratio of FasL+CD11b+ monocytes / FasL expression [2] | ratio of FasL+CD11b+ monocytes / FasL expression ([2]; listed as recombinant IL-1β) | FasL+ expression normalized to untreated control (FasL on BMDMs)
CC[C@H](C)[C@H](NC(=O)OCc1ccccc1)C(=O)N[C@@H](CCC(=O)OC)C(=O)N[C@H](C(=O)N[C@@H](CC(=O)OC)C(=O)CF)[C@@H](C)O [Z-IETD-FMK] (Cbz-IE(OMe)TD(OMe)-CH2F) | neither affected caspase-1 activation in monocytes | Neither caspase-8 nor caspase-9 inhibitor showed differences in caspase-1 activity compared to the vehicle-treated mice | T cell death was only reduced in mice treated with the caspase-8 | – | – | – | – | – | – | – | – | – | –
COC(=O)CC[C@H](NC(=O)[C@H](CC(C)C)NC(=O)OCc1ccccc1)C(=O)N[C@@H](Cc1cnc[nH]1)C(=O)N[C@@H](CC(=O)OC)C(=O)CF [Z-LEHD-FMK] (Cbz-LE(OMe)HD(OMe)-CH2F) | neither affected caspase-1 activation in monocytes | – | – | Neither caspase-8 nor caspase-9 inhibitor showed differences in caspase-1 activity compared to the vehicle-treated mice | – | – | – | – | – | – | – | – | –
B1 | – | – | – | – | increased T cell death | increased FasL expression and T cell death but to a lesser degree than induced by the serum of stroke mice | dose-dependent increase in T cell death in the spleen | dose-dependently induced T cell death and FasL upregulation on myeloid cells | dose-dependent increase in associated monocytic FasL expression in the spleen | dose-dependently induced T cell death and FasL upregulation on myeloid cells | increased the ratio of FasL^+CD11b^+ monocytes | increased FasL expression and T cell death but to a lesser degree than induced by the serum of stroke mice | FasL upregulation on myeloid cells was predominantly induced by IL-1β

— patent publication US20230241185A1, “COMPOSITION COMPRISING A DNA-DEGRADING ENZYME FOR USE IN A METHOD FOR THE TREATMENT OF IMMUNOSUPPRESSION AFTER ACUTE TISSUE INJURY” (Klinikum der Universität München, priority 2020, published 2023)
